# Measurements: article PMC8231094
# Target: rabbit muscle actin (rabbit) (UniProt P68135)
# Test: SPR; Biacore X100; rabbit muscle actin (10 ug/ml) covalently coupled to a CM5 chip by EDC/NHS, control lane without actin subtracted; formin fragments injected at 12.3 nM to 1 uM (1:3 serial dilution), 120 s injection, 600 s dissociation, 30 ul/min, 25 degrees; running buffer 10 mM HEPES pH 7.4, 150 mM NaCl, 3 mM EDTA, 10 mM MgCl2, 0.2 mM ADP, 0.5 mM DTT
sequence,measurement,value
SYMBIOTIC FORMIN 1 (SYFO1) FH1FH2 domain (domain or fragment),Kd,54.9 nM
